According to the supplement of paper PMC7877785:
± gives the uncertainty stated by the source.

Assay: self-splicing fitness, log relative to wild type (ln ratio); higher = more splicing; Tetrahymena group I intron in knt gene, E. coli kanamycin selection, DiMSum; sequences stand for … in CUCUCU…GGAGGGAAAAGUUAUCAGGCAUGCACCUGGUAGCUAGUCUUUAAACCAAUAGAUUGCAUCGGUUUAAAAGGCAAGACCGUCAAAUUGCGGGAAAGGGGUCAACAGCCGUUCAGUACCAAGUCUCAGGGGAAACUUUGAGAUGGCCUUGCAAAGGGUAUGGUAAUAAGCUGACGGACAUGGUCCUAACCACGCAGCCAAGUCCUAAGUCAACAGAUCUUCUGUUGAUAUGGAUGCAGUUCACAGACUAAAUGUCGGUCGGGGAAGAUGUAUUCUUCUCAUAAGAUAUAGUCGGACCUCUCCUUAAUGGGAGCUAGCGGAUGAAGUGAUGCAACACUGGAGCCGCUGGGAACUAAUUUGUAUGCGAAAGUAUAUUGAUUAGUUUUGGAGUACUCGUGGUCG
In short: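 Colonies from six replicate transformations of E. coli BL21(DE3) were pooled and amplicon-sequenced on an Illumina HiSeq 2500. The library placed an intron with all eight P1ex-region nucleotides randomised inside the knt kanamycin-resistance gene on pET-22b(+), and cells grew overnight at 37°C or 30°C on LB agar with or without 25 μg/mL kanamycin (plus 100 μg/mL carbenicillin, 50 μM IPTG, 0.2% rhamnose). Fitness is the DiMSum error-weighted combination of wild-type-normalised replicate fold changes, kanamycin versus none.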

Sequence | self-splicing fitness (ln) (30 °C) | self-splicing fitness (ln) (37 °C)
GGGGAGCAAUAUUACGUGAA | -2.71 ± 0.085 | -1.81 ± 0.12
GGGUAGCAAUAUUACGACGC | -1.08 ± 0.14 | 0.108 ± 0.25
GGGUAGCAAUAUUACGACGU | -0.726 ± 0.12 | -0.0177 ± 0.14
GGGUAGCAAUAUUACGCGAG | -1.85 ± 0.32 | -0.555 ± 0.18
GGGUAGCAAUAUUACGCUCA | -0.291 ± 0.17 | -0.622 ± 0.26
GGGUAGCAAUAUUACGCUCG | -0.269 ± 0.13 | -0.258 ± 0.16
GGGUAGCAAUAUUACGGCCA | -0.214 ± 0.16 | -0.498 ± 0.24
GGGUAGCAAUAUUACGGGGA | -3.52 ± 0.35 | -2.31 ± 0.38
GGGUAGCAAUAUUACGGGGU | -3.33 ± 0.32 | -3.06 ± 0.47
GGGUAGCAAUAUUACGGUGC | -1.9 ± 0.085 | -1.34 ± 0.092
GGGUAGCAAUAUUACGUAAU | -0.889 ± 0.085 | -0.379 ± 0.11
GGGUAGCAAUAUUACGUACU | -2.25 ± 0.4 | -1.43 ± 0.38
GGGUAGCAAUAUUACGUGCG | -0.234 ± 0.097 | -0.0569 ± 0.12
GGGUAGCAAUAUUACGUGCU | -0.698 ± 0.15 | -0.399 ± 0.19
GGGUAGCAAUAUUACGUGGC |  | -2.64 ± 0.33
GGGUAGCAAUAUUACGUUUA | -0.585 ± 0.12 | -0.381 ± 0.1
GGUAAGCAAUAUUACGAAUG | -2.23 ± 0.29 | -2.81 ± 0.36
GGUAAGCAAUAUUACGAGUC | -2.59 ± 0.16 | -0.851 ± 0.13
GGUAAGCAAUAUUACGCAAC |  | -1.35 ± 0.38
GGUAAGCAAUAUUACGCACG | 0.408 ± 0.12 | -0.102 ± 0.14
GGUAAGCAAUAUUACGCAUG | -2.62 ± 0.12 | -1.13 ± 0.11
GGUAAGCAAUAUUACGCCAA | -2.07 ± 0.23 | -2.09 ± 0.24
GGUAAGCAAUAUUACGCCGU | -1.93 ± 0.11 | -0.738 ± 0.13
GGUAAGCAAUAUUACGCGGC | -2.84 ± 0.19 | -1.29 ± 0.2
GGUAAGCAAUAUUACGCGUU | -1.34 ± 0.091 | -0.615 ± 0.13

Sequence | self-splicing fitness (ln) (30 °C) | self-splicing fitness (ln) (37 °C)
GGUAAGCAAUAUUACGGAAU | -3.35 ± 0.22 | -1.87 ± 0.22
GGUAAGCAAUAUUACGGACG | 0.0239 ± 0.12 | 0.484 ± 0.15
GGUAAGCAAUAUUACGGCGA | -0.523 ± 0.11 | -0.26 ± 0.13
GGUAAGCAAUAUUACGGGUC | -2.39 ± 0.24 | -1.81 ± 0.31
GGUAAGCAAUAUUACGGUAG | -3.72 ± 0.19 | -3.15 ± 0.23
GGUAAGCAAUAUUACGGUUG | -3.76 ± 0.39 | 
GGUAAGCAAUAUUACGUAAA | -0.961 ± 0.083 | -1.13 ± 0.13
GGUAAGCAAUAUUACGUAAG | -2.85 ± 0.16 | -2.17 ± 0.17
GGUAAGCAAUAUUACGUGCA | -0.586 ± 0.089 | -0.233 ± 0.13
GGUAAGCAAUAUUACGUUAC | -3.08 ± 0.34 | -1.35 ± 0.31
GGUCAGCAAUAUUACGAACG | 0.0341 ± 0.039 | 0.332 ± 0.057
GGUCAGCAAUAUUACGAAUA | -0.866 ± 0.13 | -0.645 ± 0.14
GGUCAGCAAUAUUACGAAUU | 0.104 ± 0.078 | 0.599 ± 0.091
GGUCAGCAAUAUUACGACGU | 0.0937 ± 0.091 | 0.477 ± 0.1
GGUCAGCAAUAUUACGACUC | -3.25 ± 0.24 | -1.61 ± 0.32
GGUCAGCAAUAUUACGAGAU | -2.39 ± 0.14 | -2.31 ± 0.23
GGUCAGCAAUAUUACGAGGU | -1.01 ± 0.13 | -1.7 ± 0.22
GGUCAGCAAUAUUACGAUAC | -1.32 ± 0.16 | -1.59 ± 0.19
GGUCAGCAAUAUUACGCAAA | -1.16 ± 0.17 | -0.412 ± 0.18
GGUCAGCAAUAUUACGCACU | -2.12 ± 0.27 | -0.976 ± 0.24
GGUCAGCAAUAUUACGCAUU | 0.00502 ± 0.059 | 0.0322 ± 0.069
GGUCAGCAAUAUUACGCCCA | -1.55 ± 0.21 | -0.611 ± 0.28
GGUCAGCAAUAUUACGCUUA | 0.0476 ± 0.059 | 0.296 ± 0.078
GGUCAGCAAUAUUACGGAGG |  | -2.54 ± 0.36
GGUCAGCAAUAUUACGGAUA | -0.579 ± 0.086 | 0.248 ± 0.11

Sequence | self-splicing fitness (ln) (30 °C) | self-splicing fitness (ln) (37 °C)
GGUCAGCAAUAUUACGGGAG | -3.38 ± 0.22 | -1.45 ± 0.12
GGUCAGCAAUAUUACGGGUG | -1.3 ± 0.067 | -0.637 ± 0.072
GGUCAGCAAUAUUACGGUAU | -0.344 ± 0.11 | 0.218 ± 0.13
GGUCAGCAAUAUUACGGUGC | -0.28 ± 0.075 | 0.535 ± 0.11
GGUCAGCAAUAUUACGUACU | -1.84 ± 0.12 | -0.914 ± 0.13
GGUCAGCAAUAUUACGUAGC | -0.572 ± 0.067 | -0.268 ± 0.081
GGUCAGCAAUAUUACGUCUG | -0.665 ± 0.094 | -0.321 ± 0.11
GGUCAGCAAUAUUACGUGAC | -2.08 ± 0.17 | -2 ± 0.24
GGUGAGCAAUAUUACGACAA | -1.2 ± 0.26 | -0.76 ± 0.3
GGUGAGCAAUAUUACGACGG | -2.18 ± 0.29 | -1.74 ± 0.3
GGUGAGCAAUAUUACGAGCC |  | -1.52 ± 0.43
GGUGAGCAAUAUUACGAGUC | -1.67 ± 0.24 | -1.83 ± 0.37
GGUGAGCAAUAUUACGAUAC | -2.03 ± 0.16 | -0.811 ± 0.15
GGUGAGCAAUAUUACGAUCG | -0.341 ± 0.095 | 0.221 ± 0.13
GGUGAGCAAUAUUACGAUGC | -1.6 ± 0.13 | -0.514 ± 0.19
GGUGAGCAAUAUUACGCAGU | -2.13 ± 0.32 | -2.45 ± 0.41
GGUGAGCAAUAUUACGCCUG |  | -1.47 ± 0.28
GGUGAGCAAUAUUACGCGCU | -1.7 ± 0.42 | 
GGUGAGCAAUAUUACGCUGA |  | -2.84 ± 0.48
GGUGAGCAAUAUUACGCUUA | -3.17 ± 0.35 | -1.92 ± 0.33
GGUGAGCAAUAUUACGGGCG | -1.39 ± 0.14 | -0.473 ± 0.14
GGUGAGCAAUAUUACGUAAU | -1.71 ± 0.27 | -0.991 ± 0.31
GGUGAGCAAUAUUACGUAGU | -3.37 ± 0.23 | -2.1 ± 0.29
GGUGAGCAAUAUUACGUCUG | -3.31 ± 0.17 | -2.03 ± 0.14
GGUGAGCAAUAUUACGUGAU | -2.45 ± 0.13 | -1.71 ± 0.18

Sequence | self-splicing fitness (ln) (30 °C) | self-splicing fitness (ln) (37 °C)
GGUGAGCAAUAUUACGUGUU |  | -1.87 ± 0.27
GGUUAGCAAUAUUACGAAUA | -1.94 ± 0.19 | -1.85 ± 0.26
GGUUAGCAAUAUUACGAGUA | -4.51 ± 0.46 | -1.58 ± 0.2
GGUUAGCAAUAUUACGAUAG | -1.82 ± 0.28 | -1.14 ± 0.32
GGUUAGCAAUAUUACGCAUG | -1.89 ± 0.17 | -1.57 ± 0.14
GGUUAGCAAUAUUACGCGGU | -2.85 ± 0.49 | -2.36 ± 0.35
GGUUAGCAAUAUUACGCUAA | -1.98 ± 0.41 | 
GGUUAGCAAUAUUACGCUCG | -0.367 ± 0.2 | 0.204 ± 0.28
GGUUAGCAAUAUUACGCUGA | -3.14 ± 0.14 | -2.24 ± 0.13
GGUUAGCAAUAUUACGGCGU | -0.725 ± 0.1 | 0.137 ± 0.13
GGUUAGCAAUAUUACGGGAG | -3.49 ± 0.24 | -2.55 ± 0.25
GGUUAGCAAUAUUACGGGCA | -0.0835 ± 0.083 | -0.182 ± 0.079
GGUUAGCAAUAUUACGGGGC |  | -2.66 ± 0.4
GGUUAGCAAUAUUACGGGUU | -1.99 ± 0.1 | -1.48 ± 0.12
GGUUAGCAAUAUUACGGUGC | -1.07 ± 0.088 | -0.186 ± 0.12
GGUUAGCAAUAUUACGGUGG |  | -1.57 ± 0.31
GGUUAGCAAUAUUACGUACA | -0.759 ± 0.11 | -0.469 ± 0.11
GGUUAGCAAUAUUACGUGAA | -0.107 ± 0.13 | -0.9 ± 0.14
GGUUAGCAAUAUUACGUGGG | -2.93 ± 0.2 | -2.54 ± 0.18
GGUUAGCAAUAUUACGUGUC | -1.03 ± 0.097 | -0.323 ± 0.12
GGUUAGCAAUAUUACGUUAG | -2.34 ± 0.13 | -1.69 ± 0.19
GUAAAGCAAUAUUACGAAUU | -2.11 ± 0.16 | -0.966 ± 0.18
GUAAAGCAAUAUUACGACAU | 0.272 ± 0.012 | 0.348 ± 0.032
GUAAAGCAAUAUUACGACGU | 0.341 ± 0.11 | 0.169 ± 0.12
